Measured values from US20240044046A1 (BIOATLA, published 2024).
Residue numbers refer to the chain shown, from its start. Names and notes keep the numbering of the source.

B1: BA-091-02-04-04 (antibody, V domains shown)
VH: EVQLVQSGAEVKKPGATVKISCKVSGYTFTDRTIHWIRQSPSRGLEWLGSIYPRDGSTKYNEKFKDRVTITADKSTSTAYMELSSLRSEDTAVYYCARSVGYADDYWGQGTLVTVSS
VL: DVVMTQSPLSLPVTLGQPASISCRVSEGIDNYGFTFIHWYQQKPGKAPKLLIYRASNLQSGIPARFSGSGSGTEFTLTISSLQSEDFAVYYCQQSDKDPFTFGQGTKVEIK
B2: BAP147-WT (antibody, V domains shown)
VH: EVQLLESGGGLVQPGGSLRLSCAASGFTFSSYAYSWVRQAPGKGLEWVSAISGSGGRTYYADSVKGRFTISRDNSKNTLYLQMNSLRAEDTAVYYCARLGYGRVDEWGRGTLVTVSS
VL: QSVLTQPPSASGTPGQRVTISCSGSLSNIGRNPVNWYQQLPGTAPKLLIYLDNLRLSGVPDRFSGSKSGTSASLAISGLQSEDEADYYCATWDDSHPGWTFGGGTKLTVL
B3: BAP147-LC-L051D (antibody, V domains shown)
VH: B2 VH
VL: B2 VL with L51D
B4: BAP147-HC-Y101E (antibody, V domains shown)
VH: B2 VH with Y101E
VL: B2 VL
B5: BA-091-00-2E2 (antibody, V domains shown)
VH: QVQLQQSDAELVKPGASVKISCKVSGYTFTDRTIHWMKQRPEQGLEWIGSIYPRDGSTKYNEKFKDKATLTADKSSSTAYMQLNSLTSEDSAVYFCARSVGYAFDYWGQGTTLTVSS
VL: DIVLTQSPASLAVSLGQRATISCRVSEGIDNYGFTFIHWYQQKPGQPPKLLIYRASNLQSGIPARFSGSGSRTDFTLTIYPVETDDVATYYCQQSDKDPFTFGSGTKLEIK

How the values were obtained:
[1] = target: T1, B7H4 on T47D cells (human, UniProt Q7Z7D3 25-282); test: cell-based or functional assay
T1 sequence (looked up): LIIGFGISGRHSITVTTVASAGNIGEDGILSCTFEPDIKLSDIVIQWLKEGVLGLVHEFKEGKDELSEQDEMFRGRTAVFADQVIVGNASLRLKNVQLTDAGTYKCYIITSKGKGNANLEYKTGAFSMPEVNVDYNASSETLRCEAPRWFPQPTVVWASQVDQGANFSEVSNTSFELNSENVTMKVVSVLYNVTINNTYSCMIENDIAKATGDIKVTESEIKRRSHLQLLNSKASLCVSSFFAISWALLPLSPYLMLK

[2] = target: T2, CD73 on MCF-7 cells (human, UniProt P21589 27-549); test: cell-based or functional assay
T2 sequence (looked up): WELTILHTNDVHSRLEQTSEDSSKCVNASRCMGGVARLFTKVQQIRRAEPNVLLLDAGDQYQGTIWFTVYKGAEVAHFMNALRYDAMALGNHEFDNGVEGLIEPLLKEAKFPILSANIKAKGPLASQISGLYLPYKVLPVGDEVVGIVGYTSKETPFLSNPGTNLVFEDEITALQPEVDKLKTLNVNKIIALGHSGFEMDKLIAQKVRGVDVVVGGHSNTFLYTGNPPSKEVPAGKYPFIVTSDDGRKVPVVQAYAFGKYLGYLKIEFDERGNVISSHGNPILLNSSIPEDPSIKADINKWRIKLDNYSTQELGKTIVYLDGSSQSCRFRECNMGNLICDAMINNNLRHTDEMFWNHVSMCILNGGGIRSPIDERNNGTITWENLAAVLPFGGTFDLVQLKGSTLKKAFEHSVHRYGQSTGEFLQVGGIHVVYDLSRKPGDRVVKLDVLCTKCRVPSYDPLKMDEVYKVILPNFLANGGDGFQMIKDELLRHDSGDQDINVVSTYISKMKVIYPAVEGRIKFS

Binder | EC50 (ng/ml), ADCC reporter bioassay, Palbociclib Isethionate-treated T47D cells, pH 6.0 [1] | EC50 (ng/ml), ADCC reporter bioassay, Palbociclib Isethionate-treated T47D cells, pH 7.4 [1] | EC50 (ng/ml), ADCC reporter bioassay, untreated T47D cells, pH 6.0 [1] | EC50 (ng/ml), ADCC reporter bioassay, untreated T47D cells, pH 7.4 [1] | pH 7.4/pH 6.0 ratio of ADCC EC50, Palbociclib Isethionate-treated T47D cells [1] | pH 7.4/pH 6.0 ratio of ADCC EC50, untreated T47D cells [1] | EC50 (ng/mL), ADCC reporter bioassay, Palbociclib Isethionate-treated MCF-7 cells, pH6.0 [2] | EC50 (ng/mL), ADCC reporter bioassay, Palbociclib Isethionate-treated MCF-7 cells, pH7.4 [2] | EC50 (ng/mL), ADCC reporter bioassay, untreated MCF-7 cells, pH6.0 [2] | EC50 (ng/mL), ADCC reporter bioassay, untreated MCF-7 cells, pH7.4 [2] | pH7.4/pH6.0 ratio of ADCC EC50, Palbociclib Isethionate-treated MCF-7 cells [2] | pH7.4/pH6.0 ratio of ADCC EC50, untreated MCF-7 cells [2]
B1 | 27 ng/ml | 149 ng/ml | 98.1 ng/ml | 429 ng/ml | 5.53 ratio | 4.37 ratio | – | – | – | – | – | –
B2 | – | – | – | – | – | – | 1.26 ng/mL | 1.16 ng/mL | 2.17 ng/mL | 1.07 ng/mL | 0.92 ratio | 0.49 ratio
B3 | – | – | – | – | – | – | 28.9 ng/mL | 134 ng/mL | 44.2 ng/mL | 106 ng/mL | 4.62 ratio | 2.39 ratio
B4 | – | – | – | – | – | – | 55.9 ng/mL | 545 ng/mL | 173 ng/mL | 100 ng/mL | 9.74 ratio | 0.577 ratio
B5 | 2.97 ng/ml | 10.2 ng/ml | 7.55 ng/ml | 11.7 ng/ml | 3.41 ratio | 1.54 ratio | – | – | – | – | – | –
